In paper PMC5636753, “Structural basis for DAXX interaction with ATRX” (Protein & Cell, 2017) one finds Kd and fold decrease in affinity against ATRXDBM data, which are given here for 15 molecules.

Read-outs that look alike come from different tables or passages of the source.

In assay [1] the target is T1, DAXX helical bundle (DHB) domain, DAXX_(55–144) (UniProt Q9UER7 55-144).
T1 chain: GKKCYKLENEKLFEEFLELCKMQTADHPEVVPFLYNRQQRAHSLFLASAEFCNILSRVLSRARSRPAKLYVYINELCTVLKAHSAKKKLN
In words: ITC. Background: ITC needs no label: the signal is the heat of the interaction.

For assay [2], the target named is T1, DAXX helical bundle (DHB) domain, …. Nature of the assay: ITC.
In another assay the target is T2, DAXX Y124A (Homo sapiens).
T2 chain: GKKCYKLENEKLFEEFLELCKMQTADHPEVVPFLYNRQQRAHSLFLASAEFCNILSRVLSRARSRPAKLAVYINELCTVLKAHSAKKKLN
In words: ITC.

In another assay the target is T3, DAXX V84A (Homo sapiens).
T3 chain: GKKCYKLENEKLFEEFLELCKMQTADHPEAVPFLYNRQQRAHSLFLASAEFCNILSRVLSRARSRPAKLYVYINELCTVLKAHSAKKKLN
In words: ITC.

In the next assay the target is T4, DAXX F87A (Homo sapiens).
T4 chain: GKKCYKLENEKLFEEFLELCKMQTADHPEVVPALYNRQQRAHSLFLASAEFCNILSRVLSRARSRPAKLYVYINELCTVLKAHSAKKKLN
Nature of the assay: ITC.

Another assay concerns the target T5, DAXX I127A (Homo sapiens).
T5 chain: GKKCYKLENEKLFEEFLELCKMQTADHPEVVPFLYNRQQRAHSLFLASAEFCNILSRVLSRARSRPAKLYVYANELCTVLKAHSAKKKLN
In words: ITC.

The next assay concerns the target T6, DAXX V125A (Homo sapiens).
T6 chain: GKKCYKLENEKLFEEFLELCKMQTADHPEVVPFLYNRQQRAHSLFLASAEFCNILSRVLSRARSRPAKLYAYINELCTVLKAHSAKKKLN
Nature of the assay: ITC.

For the next assay, the target named is T7, ATRX_(1,188–1,326) (UniProt P46100 1188-1326).
T7 construct: Alpha-thalassemia/mental retardation syndrome X-linked protein (ATRX), residues 1188-1326
T7 sequence (looked up): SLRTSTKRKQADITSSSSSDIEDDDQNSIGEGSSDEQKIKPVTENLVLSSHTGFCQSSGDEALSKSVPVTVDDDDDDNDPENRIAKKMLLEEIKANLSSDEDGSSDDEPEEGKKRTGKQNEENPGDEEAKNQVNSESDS
In words: ITC; isothermal titration calorimetry of ATRX fragments with DAXXDHB; conditions not shown (methods in the supplement). The conditions noted are these: both partners purified.

For assay [3], the target named is DAXX helical bundle (DHB) domain, DAXX_(55–144) (UniProt Q9UER7). Described as above.

Take DDDDDNAPANRIAKKMLLEEIKANLSSDED [ATRX 1,260–1,289 M2 (D1266A/E1268A)]: in [1], the Kd is 1750 nM.

B1: ATRX_(1,253–1,326) (domain or fragment)
chain: SVPVTVDDDDDDNDPENRIAKKMLLEEIKANLSSDEDGSSDDEPEEGKKRTGKQNEENPGDEEAKNQVNSESDS
As to B1, the Kd is 170 nM in assay [2]; 5920 nM in the assay with DAXX Y124A; 2040 nM in the assay with DAXX V84A; 2190 nM with DAXX F87A; 810 nM with DAXX I127A; 280 nM in the assay with DAXX V125A. In assay [1], this molecule showed a Kd of 160 nM.

B2: ATRX L1276A (protein)
chain: SVPVTVDDDDDDNDPENRIAKKMALEEIKANLSSDEDGSSDDEPEEGKKRTGKQNEENPGDEEAKNQVNSESDS
Consider B2, for which the Kd in [1] was 8330 nM.

B3: ATRX L1276A/I1280A (protein)
chain: SVPVTVDDDDDDNDPENRIAKKMALEEAKANLSSDEDGSSDDEPEEGKKRTGKQNEENPGDEEAKNQVNSESDS
For the molecule B3, in assay [1], binding was characterised by a dissociation constant (Kd) of 12000 nM.

B4: ATRX I1280R (protein)
chain: SVPVTVDDDDDDNDPENRIAKKMLLEERKANLSSDEDGSSDDEPEEGKKRTGKQNEENPGDEEAKNQVNSESDS
In the case of B4, the Kd in [1] was determined as 34800 nM.

B5: ATRX A1272R (protein)
chain: SVPVTVDDDDDDNDPENRIRKKMLLEEIKANLSSDEDGSSDDEPEEGKKRTGKQNEENPGDEEAKNQVNSESDS
The molecule B5 showed a Kd in [1] of 1040 nM.

B6: ATRX L1276Q (protein)
chain: SVPVTVDDDDDDNDPENRIAKKMQLEEIKANLSSDEDGSSDDEPEEGKKRTGKQNEENPGDEEAKNQVNSESDS
In assay [1], B6 displayed a Kd of 43300 nM.

B7: ATRX I1280A (protein)
chain: SVPVTVDDDDDDNDPENRIAKKMLLEEAKANLSSDEDGSSDDEPEEGKKRTGKQNEENPGDEEAKNQVNSESDS
Turning to B7, binding in [1] was put at a Kd of 400 nM.

B8: ATRX I1280Q (protein)
chain: SVPVTVDDDDDDNDPENRIAKKMLLEEQKANLSSDEDGSSDDEPEEGKKRTGKQNEENPGDEEAKNQVNSESDS
Take B8: the Kd in assay [1] came to 7350 nM.

B9: ATRX L1277R (protein)
chain: SVPVTVDDDDDDNDPENRIAKKMLREEIKANLSSDEDGSSDDEPEEGKKRTGKQNEENPGDEEAKNQVNSESDS
In turn, B9 yielded a Kd in [1] of 970 nM.

B10: ATRX L1276R (protein)
chain: SVPVTVDDDDDDNDPENRIAKKMRLEEIKANLSSDEDGSSDDEPEEGKKRTGKQNEENPGDEEAKNQVNSESDS
In assay [1], B10 gave a Kd of 73500 nM.

B11: DAXX helical bundle (DHB) domain, DAXX_(55–144) (domain or fragment, UniProt Q9UER7 55-144, looked up)
chain: GKKCYKLENEKLFEEFLELCKMQTADHPEVVPFLYNRQQRAHSLFLASAEFCNILSRVLSRARSRPAKLYVYINELCTVLKAHSAKKKLN
notes: death-domain associated protein (DAXX), N-terminal DAXX helical bundle (DHB) domain; model of the crystal covers residues 57-141; Limits 55-144 are printed for the mutagenesis panel; Crystals were selenomethionine-substituted; also called DAXXDHB; DAXX DHB
On to B11, for which the Kd with ATRX_(1,188–1,326) was 160 nM.
Regarding AAAAANDPENRIAKKMLLEEIKANLSSDED [ATRX 1,260–1,289 M1 (D1260A/D1261A/D1262A/D1263A/D1264A)], binding in assay [1] was put at a Kd of 850 nM.
The same measure, in the same setting: the result for DDDDDNDPENRIAKKMLLEEIKANLSSDED (domain or fragment) [DAXX-binding motif of ATRX, ATRX_(1,260–1,289)] reads 160 nM.
In turn, ENRIAKKMLLEEIKANLSSDED (domain or fragment) [ATRXDBM with deletion of N-terminal eight residues] gave a Kd in [1] of 10300 nM. Besides, the fold decrease in affinity against ATRXDBM in assay [3] was 60 fold.

As a reminder, the Kd is a measure of binding affinity in units of concentration. A lower Kd goes with higher affinity.
